Earlier results as cited in paper PMC9190259.
pKd: −log10 of the molar value.

Target: TNFα (Homo sapiens) (UniProt P01375)
Chain of UniProt P01375 (P01375 77-233): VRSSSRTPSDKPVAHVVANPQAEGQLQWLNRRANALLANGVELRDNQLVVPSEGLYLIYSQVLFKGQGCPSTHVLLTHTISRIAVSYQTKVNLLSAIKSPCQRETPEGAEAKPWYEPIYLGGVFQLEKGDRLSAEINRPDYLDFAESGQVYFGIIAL

pKd: 10.05
Substance: Certolizumab Fab
